Experiment [1] has as its target T1, Actin from rabbit muscle (Sigma A2522) (rabbit, UniProt P68135 1-377). Kind of experiment: ELISA; solid-phase actin binding assay: 500 ng actin coated per well (MaxiSorp, carbonate-bicarbonate pH 9.5), blocked with 3% BSA; trT2-50, trT2-50m or peptides added in 1:2 dilutions from 500 ng/well in 100 μl TBS, 1 h 37°C; detected with rabbit anti-trT2-50 and goat anti-rabbit IgG-HRP, OD 655 nm; affinity by double reciprocal plot. Particulars: both partners purified.

The target of experiment [2] is T1, Actin from rabbit muscle (Sigma A2522). Kind of experiment: SPR; BIAcore 3000; actin amine-coupled to a CM5 chip; hRNASET2, trT2-50, trT2-50m or peptides injected at 5 concentrations, 10 μl/min, 25°C, HBS (10 mM Hepes, 150 mM NaCl, 3 mM EDTA, 0.005% Polysorbate 20); global fit with BIAevaluation 3.2. Particulars: both partners purified. In general terms: Surface plasmon resonance follows binding to a sensor surface in real time, without labels.

B1: trT2-50m (truncated hRNASET2 identical to trT2-50 but missing E120-V141) (domain or fragment)
chain: EGCNRSWPFNLEEIKDLLPEMRAYWPDVIHSFPNRSRFWKHEWEKHGTCAAQVDALNSQKKYFGRSLELYRADFKDALARVYGVIPKIQCLPPSQDEEVQTIGQIELCLTKQDQQLQNCTEPGEQPSPKQEVWLANGAAESRGLRVCEDGPVFYPPPKKTKH
Regarding B1, the dissociation constant Kd (usually a measure of binding affinity in units of concentration) in experiment [1] was 34.5 nM. Besides, in experiment [2], the affinity, expressed as Kd, was 500 nM; the koff (usually the first-order rate constant of dissociation) amounted to 0.00969 s⁻¹; the kon (as a rule, the rate constant with which the complex forms) turned out to be 19400 M⁻¹ s⁻¹.

Source of the values: publication PMC4341462, “Human RNASET2 derivatives as potential anti-angiogenic agents: actin binding sequence identification and characterization” (Oncoscience, 2014).
